Results published in patent US20210220432A1, “Application of Polypeptide in Preparation of Composition for Preventing and Treating Human Papillomavirus Infection” (GENLOCI BIOTECHNOLOGIES INC., priority 2018, published 2021).
No end group written: not given here.

Key:
HPV-16 L1 protein = molecular target: T1, HPV-16 L1 protein (Human papillomavirus type 16, UniProt P03101); test: Biomolecular interaction analysis (SPR, Biacore 3000) of the polypeptide with HPV-16 L1 protein; type: binding
T1 construct: purchased Abcam ab119880
Text: Biomolecular interaction analysis (BIA) is a biosensing analysis technology based on a physical optical phenomenon known as surface plasmon resonance (SPR). BIA can provide real-time observation of the interaction between biomolecules, through which, the binding specificity of two molecules can be observed, how strong the binding of the two molecules is can be known, and how many cooperators and participants there are in the binding process of biomolecules can be known.
In this experiment, BIA technology is used to observe whether there is an interaction between the polypeptide of the present invention and the HPV L1 protein, so as to explore the mechanism of inhibiting HPV virus by the polypeptide.
3. […]
(5) The coupling effect is automatically calculated by the software. In the experiment, the experimental channel is finally coupled with about 5300 RU of HPV-16 L1 Protein, where the unit RU is the unit of coupling quantity defined by the system. […]
(8) The program is designed according to the steps of equilibration, testing, equilibration, and regeneration, and the polypeptide solution of each concentration was detected. […] During the detection, the sample passes through the blank channel and the experimental channel in turn, and the data to be detected is the resultant difference of “experimental channel response value minus blank channel response value”. […]

HPV = details: literature study; HD6 at the highest cytotoxic dose; cited from earlier work
[1] = molecular target: T2, HPV-16 L1 protein (Cat. No. ab119880, Abcam), recombinantly expressed (human papillomavirus type 16), P03101; test: SPR, Biacore 3000, HPV-16 L1 amine-coupled on chip, polypeptide as analyte
T2 chain: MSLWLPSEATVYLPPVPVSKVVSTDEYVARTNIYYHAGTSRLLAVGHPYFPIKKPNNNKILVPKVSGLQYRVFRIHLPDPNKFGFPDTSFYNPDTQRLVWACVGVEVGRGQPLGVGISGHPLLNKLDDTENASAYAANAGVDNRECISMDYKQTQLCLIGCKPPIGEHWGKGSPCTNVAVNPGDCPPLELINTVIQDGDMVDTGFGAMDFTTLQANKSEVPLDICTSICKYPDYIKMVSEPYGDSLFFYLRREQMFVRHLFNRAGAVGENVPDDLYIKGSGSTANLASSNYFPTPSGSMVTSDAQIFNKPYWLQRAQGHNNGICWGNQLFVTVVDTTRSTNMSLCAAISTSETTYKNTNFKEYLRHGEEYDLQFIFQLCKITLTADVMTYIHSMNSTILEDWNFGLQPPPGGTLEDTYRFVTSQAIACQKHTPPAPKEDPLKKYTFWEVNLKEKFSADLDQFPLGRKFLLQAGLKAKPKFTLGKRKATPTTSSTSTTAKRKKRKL

**Q.** With MGRFKRFRKKFKKLFKKLS [The polypeptide] as the molecule, how does the Kd (HPV-16 L1 protein; KD, Affinity constant, SPR, kinetic analysis, HPV-16 L1 protein) read?
**A.** 782 pM

**Q.** And the kon (HPV-16 L1 protein; read-out: ka, Binding constant)?
**A.** 2.35e+06 M⁻¹ s⁻¹

**Q.** For “HD6: human α-defensin secreted by human Paneth cells (AFTCHCRRSCYSTEYSYGTCTVMGINHRFCCL; ends and bridges not checked; cysteine pairing not given here; UniProt Q01524 69-100, looked up) [reference compound]”, which “Activity against HPV” value (HPV) is on record?
**A.** inactive

B1: HD5: human α-defensin secreted by human Paneth cells (peptide, UniProt Q01523 20-94, looked up)
Defensin alpha 5: ESLQERADEATTQKQSGEDNQDLAISFAGNGLSALRTSGSQARATCYCRTGRCATRESLSGVCEISGRLYRLCCR
modifications: Defensin-5
notes: human α-defensin secreted by human Paneth cells
**Q.** For B1, which “Activity against HPV” value (HPV) is on record?
**A.** inhibiting HPV activity

**Q.** For MGRFKRFRKKFKKLFKKLS (modifications not checked) [the polypeptide of the present invention (antimicrobial polypeptide, SEQ ID NO: 1)], which Kd [1] is on record?
**A.** 782 pM

**Q.** What about the koff [1] of the same molecule?
**A.** 0.00184 s⁻¹

**Q.** And the kon [1]?
**A.** 2.35e+06 M⁻¹ s⁻¹
